{
  "source": "IntAct's records for PubMed 19536132",
  "parents": {"B1": {"name": "Conserved oligomeric Golgi complex subunit 4 (Homo sapiens), Q9H9E3 (parent)", "chain": "MADLDSPPKLSGVQQPSEGVGGGRCSEISAELIRSLTELQELEAVYERLCGEEKVVERELDALLEQQNTIESKMVTLHRMGPNLQLIEGDAKQLAGMITFTCNLAENVSSKVRQLDLAKNRLYQAIQRADDILDLKFCMDGVQTALRSEDYEQAAAHTHRYLCLDKSVIELSRQGKEGSMIDANLKLLQEAEQRLKAIVAEKFAIATKEGDLPQVERFFKIFPLLGLHEEGLRKFSEYLCKQVASKAEENLLMVLGTDMSDRRAAVIFADTLTLLFEGIARIVETHQPIVETYYGPGRLYTLIKYLQVECDRQVEKVVDKFIKQRDYHQQFRHVQNNLMRNSTTEKIEPRELDPILTEVTLMNARSELYLRFLKKRISSDFEVGDSMASEEVKQEHQKCLDKLLNNCLLSCTMQELIGLYVTMEEYFMRETVNKAVALDTYEKGQLTSSMVDDVFYIVKKCIGRALSSSSIDCLCAMINLATTELESDFRDVLCNKLRMGFPATTFQDIQRGVTSAVNIMHSSLQQGKFDTKGIESTDEAKMSFLVTLNNVEVCSENISTLKKTLESDCTKLFSQGIGGEQAQAKFDSCLSDLAAVSNKFRDLLQEGLTELNSTAIKPQVQPWINSFFSVSHNIEEEEFNDYEANDPWVQQFILNLEQQMAEFKASLSPVIYDSLTGLMTSLVAVELEKVVLKSTFNRLGGLQFDKELRSLIAYLTTVTTWTIRDKFARLSQMATILNLERVTEILDYWGPNSGPLTWRLTPAEVRQVLALRIDFRSEDIKRLRL"}},
  "data": [
    {"variants_of": "B1", "conditions": "with scfd1_human SCFD1, Q8WVM8", "values": [
      {"variant": "E53A", "effect of a mutation on the interaction": "decreasing interaction"}
    ]},
    {"variants_of": "B1", "conditions": "with scfd1_human SCFD1, Q8WVM8", "remark": "another data set of the same source", "values": [
      {"variant": "E53A", "effect of a mutation on the interaction": "disrupting interaction"},
      {"variant": "E71A", "effect of a mutation on the interaction": "disrupting interaction"}
    ]}
  ]
}
